Assay results published in US20140072613A1 (published 2014).

T1: ULK2(h) (human, UniProt Q8IYT8 1-631, limits assumed)
T1 sequence (looked up): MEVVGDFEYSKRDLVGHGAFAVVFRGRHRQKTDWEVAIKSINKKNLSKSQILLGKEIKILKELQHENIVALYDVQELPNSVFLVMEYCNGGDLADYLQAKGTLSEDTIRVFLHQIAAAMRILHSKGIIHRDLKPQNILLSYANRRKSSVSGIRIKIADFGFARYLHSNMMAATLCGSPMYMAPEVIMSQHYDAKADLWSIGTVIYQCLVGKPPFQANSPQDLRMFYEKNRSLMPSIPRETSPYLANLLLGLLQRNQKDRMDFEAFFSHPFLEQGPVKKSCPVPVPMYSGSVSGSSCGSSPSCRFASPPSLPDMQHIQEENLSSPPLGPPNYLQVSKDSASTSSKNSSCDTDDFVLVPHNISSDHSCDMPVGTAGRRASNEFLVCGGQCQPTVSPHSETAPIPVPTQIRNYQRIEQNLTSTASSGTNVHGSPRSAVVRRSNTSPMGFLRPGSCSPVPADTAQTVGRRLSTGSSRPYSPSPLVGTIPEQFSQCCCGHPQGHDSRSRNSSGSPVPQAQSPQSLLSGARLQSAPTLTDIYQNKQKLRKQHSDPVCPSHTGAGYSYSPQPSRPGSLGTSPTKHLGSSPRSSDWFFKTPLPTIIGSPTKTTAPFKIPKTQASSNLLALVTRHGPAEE

T2: Flt3(h) (human, UniProt P36888 564-993, limits assumed)
T2 sequence (looked up): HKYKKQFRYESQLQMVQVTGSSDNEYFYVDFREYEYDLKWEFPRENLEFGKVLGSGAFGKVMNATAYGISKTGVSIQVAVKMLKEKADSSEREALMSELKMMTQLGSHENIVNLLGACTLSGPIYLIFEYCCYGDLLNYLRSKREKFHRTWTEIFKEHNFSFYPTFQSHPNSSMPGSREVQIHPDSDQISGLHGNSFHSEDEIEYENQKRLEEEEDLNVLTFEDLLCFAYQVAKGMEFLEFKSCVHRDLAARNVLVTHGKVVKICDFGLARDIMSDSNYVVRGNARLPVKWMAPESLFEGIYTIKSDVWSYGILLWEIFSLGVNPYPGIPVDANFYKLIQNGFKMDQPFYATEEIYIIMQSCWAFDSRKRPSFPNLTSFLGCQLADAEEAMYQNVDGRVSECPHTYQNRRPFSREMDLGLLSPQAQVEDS

T3: GRK7(h) (human, UniProt Q8WTQ7 1-553)
T3 sequence (looked up): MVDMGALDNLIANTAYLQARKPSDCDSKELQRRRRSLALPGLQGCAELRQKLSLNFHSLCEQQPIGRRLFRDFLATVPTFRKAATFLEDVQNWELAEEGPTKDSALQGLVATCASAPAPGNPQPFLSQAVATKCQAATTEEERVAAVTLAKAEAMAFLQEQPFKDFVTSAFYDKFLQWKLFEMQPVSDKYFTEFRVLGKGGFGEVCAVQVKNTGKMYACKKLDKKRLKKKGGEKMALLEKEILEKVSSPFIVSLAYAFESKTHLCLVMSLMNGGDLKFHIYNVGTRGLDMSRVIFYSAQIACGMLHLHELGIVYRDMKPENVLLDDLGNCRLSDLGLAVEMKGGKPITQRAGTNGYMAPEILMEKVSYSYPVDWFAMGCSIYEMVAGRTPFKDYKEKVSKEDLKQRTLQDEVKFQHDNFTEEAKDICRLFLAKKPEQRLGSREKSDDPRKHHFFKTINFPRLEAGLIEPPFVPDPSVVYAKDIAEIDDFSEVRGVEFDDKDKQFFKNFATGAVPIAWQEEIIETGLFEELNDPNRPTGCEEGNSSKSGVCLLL


Tests used:
Test in all cases: cell-based or functional assay
SAPK2b(h) = SAPK2b(h) (human, UniProt Q15759 1-364)
Mnk2(h) = Mnk2(h) (human, UniProt Q9HBH9 1-465, limits assumed)
Hck(h) activated = Hck(h) activated (human, UniProt P08631 251-518, limits assumed)
DAPK2(h) = DAPK2(h) (human, UniProt Q9UIK4 1-370, limits assumed)
Snk(h) = Snk(h) (human, UniProt Q9NYY3 1-685, limits assumed)
cKit(D816H)(h) = cKit(D816H)(h) (human, UniProt P10721 544-976)
CaMKIIβ(h) = CaMKIIβ(h) (human, UniProt Q13554 1-666)
PKCγ(h) = PKCγ(h) (human, UniProt P05129 1-697)
PKBβ(h) = PKBβ(h) (human, UniProt P31751 1-481, limits assumed)
MAPK1(h) = MAPK1(h) (human, UniProt P28482 1-360, limits assumed)
ULK2(h) = target: T1, ULK2(h)
GSK3α(h) = GSK3α(h) (human, UniProt P49840 1-483)
PAK3(h) = PAK3(h) (human, UniProt O75914 1-559, limits assumed)
Rsk3(h) = Rsk3(h) (human, UniProt Q15349 1-733)
Flt3(h) = target: T2, Flt3(h)
MRCKα(h) = MRCKα(h) (human, UniProt Q5VT25 1-473, limits assumed)
GRK7(h) = target: T3, GRK7(h)
ALK(h) = ALK(h) (human, UniProt Q9UM73 1058-1620, limits assumed)
CDK5/p35(h) = CDK5/p35(h) (human, UniProt Q00535 1-292; Q15078 1-307)

Chain of MAPK1(h) (P28482 whole entry): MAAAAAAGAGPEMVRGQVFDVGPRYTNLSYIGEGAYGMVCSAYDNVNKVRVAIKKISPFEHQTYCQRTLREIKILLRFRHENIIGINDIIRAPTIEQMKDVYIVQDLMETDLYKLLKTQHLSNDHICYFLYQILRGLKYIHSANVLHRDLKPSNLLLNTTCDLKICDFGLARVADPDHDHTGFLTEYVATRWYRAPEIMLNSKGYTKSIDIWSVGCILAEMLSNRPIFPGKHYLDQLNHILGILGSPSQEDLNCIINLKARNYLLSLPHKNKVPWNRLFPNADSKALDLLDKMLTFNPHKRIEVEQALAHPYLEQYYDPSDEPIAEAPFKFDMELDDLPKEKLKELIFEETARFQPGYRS
Chain of PKBβ(h) (P31751 whole entry): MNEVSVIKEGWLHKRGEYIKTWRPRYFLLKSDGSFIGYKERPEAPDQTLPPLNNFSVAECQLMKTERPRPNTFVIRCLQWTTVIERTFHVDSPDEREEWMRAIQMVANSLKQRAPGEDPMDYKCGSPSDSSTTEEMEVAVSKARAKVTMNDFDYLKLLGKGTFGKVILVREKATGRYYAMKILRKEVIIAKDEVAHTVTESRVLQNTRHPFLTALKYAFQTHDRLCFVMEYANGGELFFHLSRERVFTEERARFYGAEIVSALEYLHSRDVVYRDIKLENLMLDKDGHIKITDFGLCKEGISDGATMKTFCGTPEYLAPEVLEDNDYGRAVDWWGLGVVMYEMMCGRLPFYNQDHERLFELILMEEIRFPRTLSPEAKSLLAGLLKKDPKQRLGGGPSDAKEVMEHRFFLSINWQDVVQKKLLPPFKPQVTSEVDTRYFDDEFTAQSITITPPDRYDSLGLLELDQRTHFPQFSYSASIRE
Chain of CaMKIIβ(h) (Q13554 whole entry): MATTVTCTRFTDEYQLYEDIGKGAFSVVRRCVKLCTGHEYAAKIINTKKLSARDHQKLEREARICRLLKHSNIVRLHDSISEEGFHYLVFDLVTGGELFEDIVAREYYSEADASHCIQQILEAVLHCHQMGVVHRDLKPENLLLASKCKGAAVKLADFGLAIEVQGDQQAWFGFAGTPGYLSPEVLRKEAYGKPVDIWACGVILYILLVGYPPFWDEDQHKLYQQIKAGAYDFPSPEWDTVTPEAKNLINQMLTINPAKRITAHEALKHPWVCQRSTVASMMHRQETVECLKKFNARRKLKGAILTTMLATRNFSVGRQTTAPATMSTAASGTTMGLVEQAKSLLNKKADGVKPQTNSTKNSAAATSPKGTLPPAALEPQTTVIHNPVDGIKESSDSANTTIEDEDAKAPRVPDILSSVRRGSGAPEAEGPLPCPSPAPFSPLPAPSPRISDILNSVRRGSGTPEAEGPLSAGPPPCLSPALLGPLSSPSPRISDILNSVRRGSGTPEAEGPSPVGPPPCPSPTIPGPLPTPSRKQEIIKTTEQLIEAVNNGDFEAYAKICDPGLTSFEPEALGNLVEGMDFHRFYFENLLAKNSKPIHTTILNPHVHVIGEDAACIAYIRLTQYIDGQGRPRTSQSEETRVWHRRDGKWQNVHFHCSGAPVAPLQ
Chain of SAPK2b(h) (Q15759 whole entry): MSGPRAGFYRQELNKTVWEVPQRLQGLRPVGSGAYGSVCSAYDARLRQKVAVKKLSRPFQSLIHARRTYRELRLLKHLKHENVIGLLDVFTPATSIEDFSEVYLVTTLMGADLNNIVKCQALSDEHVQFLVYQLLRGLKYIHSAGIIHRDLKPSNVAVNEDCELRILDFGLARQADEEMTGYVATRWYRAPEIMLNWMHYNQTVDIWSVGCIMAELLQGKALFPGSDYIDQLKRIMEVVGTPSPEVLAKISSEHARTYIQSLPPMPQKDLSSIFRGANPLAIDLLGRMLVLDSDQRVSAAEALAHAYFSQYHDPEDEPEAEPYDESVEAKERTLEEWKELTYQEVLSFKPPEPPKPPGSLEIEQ
Chain of ALK(h) (Q9UM73 1058-1620 limits assumed): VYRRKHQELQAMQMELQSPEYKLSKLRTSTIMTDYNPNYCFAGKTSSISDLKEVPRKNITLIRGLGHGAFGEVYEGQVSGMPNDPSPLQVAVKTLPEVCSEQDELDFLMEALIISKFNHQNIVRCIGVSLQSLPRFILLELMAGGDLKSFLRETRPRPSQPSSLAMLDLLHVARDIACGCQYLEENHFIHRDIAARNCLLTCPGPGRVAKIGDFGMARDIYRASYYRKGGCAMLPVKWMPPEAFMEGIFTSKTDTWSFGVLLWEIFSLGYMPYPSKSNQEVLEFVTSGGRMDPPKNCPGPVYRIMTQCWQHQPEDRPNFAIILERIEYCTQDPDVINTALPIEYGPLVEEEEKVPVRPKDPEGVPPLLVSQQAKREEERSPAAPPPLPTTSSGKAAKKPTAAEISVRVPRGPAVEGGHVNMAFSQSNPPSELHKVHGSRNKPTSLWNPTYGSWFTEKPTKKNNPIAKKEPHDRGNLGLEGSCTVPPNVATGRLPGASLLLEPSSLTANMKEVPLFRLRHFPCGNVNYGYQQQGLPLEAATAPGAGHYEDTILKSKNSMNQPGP
Chain of Rsk3(h) (Q15349 whole entry): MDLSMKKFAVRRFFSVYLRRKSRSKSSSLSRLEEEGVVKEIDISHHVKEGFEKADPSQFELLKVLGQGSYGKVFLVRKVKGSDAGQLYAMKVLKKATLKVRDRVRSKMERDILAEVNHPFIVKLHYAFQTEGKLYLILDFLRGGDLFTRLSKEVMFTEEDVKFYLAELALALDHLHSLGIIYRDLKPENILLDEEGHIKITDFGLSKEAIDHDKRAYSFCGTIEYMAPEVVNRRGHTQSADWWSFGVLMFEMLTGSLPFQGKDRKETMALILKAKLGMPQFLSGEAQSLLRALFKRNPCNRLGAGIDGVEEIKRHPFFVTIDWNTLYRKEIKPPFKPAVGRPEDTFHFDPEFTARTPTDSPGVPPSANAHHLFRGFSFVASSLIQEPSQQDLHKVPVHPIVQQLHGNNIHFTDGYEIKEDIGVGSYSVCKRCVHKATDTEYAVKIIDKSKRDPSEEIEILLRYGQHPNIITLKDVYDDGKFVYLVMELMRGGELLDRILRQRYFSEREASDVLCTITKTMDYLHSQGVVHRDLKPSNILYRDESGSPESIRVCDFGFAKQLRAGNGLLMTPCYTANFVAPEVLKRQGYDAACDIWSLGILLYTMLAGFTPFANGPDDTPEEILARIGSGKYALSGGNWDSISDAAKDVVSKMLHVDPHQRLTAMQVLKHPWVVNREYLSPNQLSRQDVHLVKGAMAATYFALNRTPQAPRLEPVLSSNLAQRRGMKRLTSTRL
Chain of Mnk2(h) (Q9HBH9 whole entry): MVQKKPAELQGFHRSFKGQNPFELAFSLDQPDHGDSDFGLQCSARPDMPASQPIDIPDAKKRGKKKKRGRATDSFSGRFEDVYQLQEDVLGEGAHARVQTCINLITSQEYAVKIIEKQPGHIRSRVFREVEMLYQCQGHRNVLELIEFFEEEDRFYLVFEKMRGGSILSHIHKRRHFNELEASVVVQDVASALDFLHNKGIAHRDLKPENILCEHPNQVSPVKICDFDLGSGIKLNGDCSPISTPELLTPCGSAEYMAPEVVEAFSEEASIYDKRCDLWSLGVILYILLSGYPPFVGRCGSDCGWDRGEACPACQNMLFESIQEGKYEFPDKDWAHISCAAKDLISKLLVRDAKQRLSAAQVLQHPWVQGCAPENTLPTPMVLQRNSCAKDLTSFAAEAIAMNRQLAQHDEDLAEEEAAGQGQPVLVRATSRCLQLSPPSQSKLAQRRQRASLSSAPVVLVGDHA
Chain of PAK3(h) (O75914 whole entry): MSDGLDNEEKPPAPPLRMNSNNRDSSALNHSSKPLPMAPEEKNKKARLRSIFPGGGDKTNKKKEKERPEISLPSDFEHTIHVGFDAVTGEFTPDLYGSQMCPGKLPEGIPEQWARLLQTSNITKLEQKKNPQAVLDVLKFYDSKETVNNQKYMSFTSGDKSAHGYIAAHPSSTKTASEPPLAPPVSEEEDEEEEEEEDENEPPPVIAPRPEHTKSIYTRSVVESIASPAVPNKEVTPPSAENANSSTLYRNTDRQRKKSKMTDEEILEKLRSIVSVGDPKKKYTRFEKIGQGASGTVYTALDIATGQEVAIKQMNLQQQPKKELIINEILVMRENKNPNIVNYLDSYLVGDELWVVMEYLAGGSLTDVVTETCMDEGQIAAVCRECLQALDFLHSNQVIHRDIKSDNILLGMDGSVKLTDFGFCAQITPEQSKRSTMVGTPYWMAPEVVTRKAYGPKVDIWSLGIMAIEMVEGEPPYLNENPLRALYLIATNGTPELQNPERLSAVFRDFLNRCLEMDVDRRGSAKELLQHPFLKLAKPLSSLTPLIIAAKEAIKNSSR

Binder | % activity, 100 µM (SAPK2b(h)) [%] | % activity, 100 µM (Mnk2(h)) [%] | % activity, 100 µM (Hck(h) activated) [%] | % activity, 100 µM (DAPK2(h)) [%] | % activity, 100 µM (Snk(h)) [%] | % activity, 100 µM (cKit(D816H)(h)) [%] | % activity, 100 µM (CaMKIIβ(h)) [%] | % activity, 100 µM (PKCγ(h)) [%] | % activity, 100 µM (PKBβ(h)) [%] | % activity, 100 µM (MAPK1(h)) [%] | % activity, 100 µM (ULK2(h)) [%] | % activity, 100 µM (GSK3α(h)) [%] | % activity, 100 µM (PAK3(h)) [%] | % activity, 100 µM (Rsk3(h)) [%] | % activity, 100 µM (Flt3(h)) [%] | % activity, 100 µM (MRCKα(h)) [%] | % activity, 100 µM (GRK7(h)) [%] | % activity, 100 µM (ALK(h)) [%] | % activity, 100 µM (CDK5/p35(h)) [%]
KAFAKLAARLYRKALARQLGVAA [MMI-0400] | 82 | 86 | 81 | 16 | 131 | 143 | 11 | 79 | 98 | 100 | 131 | 164 | 121 | 71 | 18 | 97 | 100 | 16 | 76
FAKLAARLYRKALARQLGVAA [MMI-0300] | 81 | 89 | 82 | 32 | 114 | 126 | 2 | 89 | 84 | 107 | 122 | 157 | 140 | 76 | 84 | 104 | 122 | 19 | 79
